According to patent US20230212587A1, “Mutant Hydroxyphenylpyruvate Dioxygenase Polypeptide, Encoding Gene Thereof and Use Therefor” (Beijing Dabeinong Biotechnology Co., Ltd., priority 2019, published 2023):

Test system: Arabidopsis thaliana T1 plants
Test: Topramezone tolerance of transgenic Arabidopsis thaliana T1 plants (pesticide damage grade by bleached leaf area, score, resistance evaluation)
Format: in vivo
Settings: HPPDs from different species, 7 DAT; for Classification and statistics of pesticide damage grade Grade 0 / Classification and statistics of pesticide damage grade Grade 1 / Classification and statistics of pesticide damage grade Grade 2 / Classification and statistics of pesticide damage grade Grade 3: number of plants (of 16) in this grade; for Scores: score for pesticide damage 0-100
Procedure, shortened: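 Herbicide tolerance was judged per plant on a bleaching scale (grade 0 no bleaching to grade 3 fully bleached) 7 DAT. Topramezone doses were 0, 25, 50 and 100 g ai/ha on 18-day-old T1 and wild-type plants.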

| Molecule | Classification and statistics of pesticide damage grade Grade 0 (topramezone 25 g ai/ha (1x)) | Classification and statistics of pesticide damage grade Grade 1 (topramezone 25 g ai/ha (1x)) | Classification and statistics of pesticide damage grade Grade 2 (topramezone 25 g ai/ha (1x)) | Classification and statistics of pesticide damage grade Grade 3 (topramezone 25 g ai/ha (1x)) | Classification and statistics of pesticide damage grade Grade 0 (topramezone 100 g ai/ha (4x)) | Classification and statistics of pesticide damage grade Grade 1 (topramezone 100 g ai/ha (4x)) | Classification and statistics of pesticide damage grade Grade 2 (topramezone 100 g ai/ha (4x)) | Classification and statistics of pesticide damage grade Grade 3 (topramezone 100 g ai/ha (4x)) | Scores (topramezone 25 g ai/ha (1x)) | Scores (topramezone 100 g ai/ha (4x)) | Resistance evaluation (topramezone 25 g ai/ha (1x)) | Resistance evaluation (topramezone 100 g ai/ha (4x)) |
| --- | --- | --- | --- | --- | --- | --- | --- | --- | --- | --- | --- | --- |
| CyHPPD-02: native Cyanobacteria HPPD, SEQ ID NO: 141 (protein, CyHPPD Amino Acid Sequence (Cyanobacteria)) MEFDYLHLYVDDYQSAHRCYQRQWGFTCVNKIITDQGITGIYQQGQILLLISASESSLSRYADYLQKHPPGVGEVAWQVANWQKIQHQLSELQIETTPVIHPLTKAEGLTFLLWGDVHHSIYPVRSELNQNKTLHGVGLTTIDHVVLNIAADQFTQASQWYQQVFGWSVQQSFTVNTPHSGLYSEALASANGKVQFNLNCPTNNSSQIQTFLANNHGAGIQHVAFSTTSITRTVAHLRERGVNFLKIPTGYYQQQRNSSYFNYASLDWDTLQCLEILLDDQDNTGERLLLQIFSQPCYGVGTLFWEIIERRHRAKGFGQGNFQALYEAVETLEKQLEVP | 0 | 0 | 0 | 0 | 0 | 0 | 0 | 0 | 16 | 16 | non-resistant (non-resistant plants (scores 68-100)) | non-resistant (non-resistant plants (scores 68-100)) |
| CyHPPDm-F372A-02: Cyanobacteria HPPD mutant F372A, SEQ ID NO: 144 (protein, CyHPPDm-F372A Amino Acid Sequence) MEFDYLHLYVDDYQSAHRCYQRQWGFTCVNKIITDQGITGIYQQGQILLLISASESSLSRYADYLQKHPPGVGEVAWQVANWQKIQHQLSELQIETTPVIHPLTKAEGLTFLLWGDVHHSIYPVRSELNQNKTLHGVGLTTIDHVVLNIAADQFTQASQWYQQVFGWSVQQSFTVNTPHSGLYSEALASANGKVQFNLNCPTNNSSQIQTFLANNHGAGIQHVAFSTTSITRTVAHLRERGVNFLKIPTGYYQQQRNSSYFNYASLDWDTLQCLEILLDDQDNTGERLLLQIASQPCYGVGTLFWEIIERRHRAKGFGQGNFQALYEAVETLEKQLEVP | 1 | 14 | 1 | 0 | 0 | 1 | 15 | 0 | 33 | 65 | moderately resistant (moderately resistant plants (scores 16-33)) | poorly resistant (poorly resistant plants (scores 34-67)) |
| AhHPPD-02: native Arachis hypogaea HPPD, SEQ ID NO: 135 (protein, listed as Arachis hypogaea, AhHPPD Amino Acid Sequence) MATAYTYAHAVTYCNSQHNPPIIPILSTNQHPPRVTLPSSIPHFISTITTFNLKHFPSHSLHTVMVTQTQQNAPSSSPELGFKLVGFKNFVRTNPKSDRFKVIRFHHVEFWCTDATNTASRFSWGLGMPIVAKSDLSTGNAVHASYLLRSGDLNFLFSAPYSASIAGDGASASFPSFSASDCHSFAAKHGLAVRAVAIEVEDASAAFSASVANGAKPVSPAVLLDNSVGFAEVHLYGDVVLRYISYSAPTRESNLNPTLRFLPGFEAVEADSSFPELDYGIRRLDHAVGNVPELAPAVNYLKKFTGFHEFAEFTAEDVGTSESGLNSVVLASNDEMVLLPLNEPVYGTKRKSQIETYLEHNEGAGLQHLALVSEDIFRTLREMRKRSTIGGFQFMPSPPPTYYRNLKKRAGDVLSDEQIKECEELGILVDRDDQGTLLQIFTKPVGDRPTIFIEIIQRIGCMLKDEEGKVYQKGGCGGFGKGNFSELFKSIEEYEKTLESRRTA | 0 | 0 | 0 | 16 | 0 | 0 | 0 | 16 | 100 | 100 | non-resistant (non-resistant plants (scores 68-100)) | non-resistant (non-resistant plants (scores 68-100)) |
| AhHPPDm-F372A-02: Arachis hypogaea HPPD mutant F372A, SEQ ID NO: 138 (protein, AhHPPDm-F372A Amino Acid Sequence) MATAYTYAHAVTYCNSQHNPPIIPILSTNQHPPRVTLPSSIPHFISTITTFNLKHFPSHSLHTVMVTQTQQNAPSSSPELGFKLVGFKNFVRTNPKSDRFKVIRFHHVEFWCTDATNTASRFSWGLGMPIVAKSDLSTGNAVHASYLLRSGDLNFLFSAPYSASIAGDGASASFPSFSASDCHSFAAKHGLAVRAVAIEVEDASAAFSASVANGAKPVSPAVLLDNSVGFAEVHLYGDVVLRYISYSAPTRESNLNPTLRFLPGFEAVEADSSFPELDYGIRRLDHAVGNVPELAPAVNYLKKFTGFHEFAEFTAEDVGTSESGLNSVVLASNDEMVLLPLNEPVYGTKRKSQIETYLEHNEGAGLQHLALVSEDIFRTLREMRKRSTIGGFQFMPSPPPTYYRNLKKRAGDVLSDEQIKECEELGILVDRDDQGTLLQIATKPVGDRPTIFIEIIQRIGCMLKDEEGKVYQKGGCGGFGKGNFSELFKSIEEYEKTLESRRTA | 2 | 12 | 2 | 0 | 0 | 0 | 10 | 6 | 33 | 79 | moderately resistant (moderately resistant plants (scores 16-33)) | non-resistant (non-resistant plants (scores 68-100)) |
| S1HPPDm-F372A-02: Solanum lycopersicum HPPD mutant F372A, SEQ ID NO: 132 (protein, SlHPPDm-F372A Amino Acid Sequence) MGKQAAAAADDQQLPGDIEDKFKLVGFNHFVRTNPRSDFFTVKRFHHIEFWCGDATNTARRFSWGLGLPIAAISDLSTGNSVHASYLLRSSSSSQLQFLFTAPYSSAISTSSSASIPTFSVSSHRSFTATHGLGVRAIALEVENSRLAFSTCVAHGAKPVSEPVILNDEVVIAEVHLYGDVVLRFVSFLKDSNCFVFLPGFESVEGAQLDYGIRRLDHAVGNVPELGPVVEYIKSFTGFHEFAEFTAEDVGTAESGLNSVVLANNDETVLFPLNEPVYGTKRKSQIQTYLEHNEGAGVQHLALVTEDIFRTLREMRKRSGIGGFEFMPSPPPTYYKNLKTRAGDILSDEQIQECEELGILVDRDDQGTLLQIATKPVGDRPTIFLEIIQRIGCMLKNEEGELYQKGGCGGFGKGNFSELFKSIEEYEKTLEAKQNTQVAIA | 1 | 1 | 14 | 0 | 0 | 1 | 4 | 11 | 60 | 88 | poorly resistant (poorly resistant plants (scores 34-67)) | non-resistant (non-resistant plants (scores 68-100)) |
| N1HPPD-02: native Sphingobium sp. N1 HPPD, SEQ ID NO: 147 (protein, N1HPPD Amino Acid Sequence (Sphingobacterium)) MAADSENPLGLHGFAFAEFTSPDPAAMARQFEQLGFVPAARRKDRGLTLYRQGRIAFILNAGEGEQASAFRAAHGPSANGMAFNVADAKAAHRHAIQSGATDADTAQSALPGTYAIEGIGDSLLYLVDSDPFADWDEVPGWREASAERGVGLDLLDHLTHNVRRGQMRVWSEFYATLFGFEEQKFFDIKGQATGLFSQAMIAPDHEIRIPLNESQDDNSQIEEFIREYNGEGIQHLALTTPDIYSTVEKLRANGVRLQDTIDTYYDLVDERVPGHGEDLARLRKNRILIDGDVHDEGLLLQIFTETMFGPIFFEIIQRKGNEGFGNGNFQVLYESIELDQIRRGVVTVDA | 2 | 12 | 1 | 1 | 0 | 4 | 8 | 4 | 35 | 67 | poorly resistant (poorly resistant plants (scores 34-67)) | poorly resistant (poorly resistant plants (scores 34-67)) |
